The EC50 is the concentration at which the effect is half-maximal.

Consider 16 molecules from US20240116985A1 (published 2024).

T1: full-length beta-Catenin (Uniprot ID P35222) (Homo sapiens (Human), UniProt P35222 1-781)
T1 construct: The assay protocols call it full-length; also called B-Catenin; bCat
T1 sequence: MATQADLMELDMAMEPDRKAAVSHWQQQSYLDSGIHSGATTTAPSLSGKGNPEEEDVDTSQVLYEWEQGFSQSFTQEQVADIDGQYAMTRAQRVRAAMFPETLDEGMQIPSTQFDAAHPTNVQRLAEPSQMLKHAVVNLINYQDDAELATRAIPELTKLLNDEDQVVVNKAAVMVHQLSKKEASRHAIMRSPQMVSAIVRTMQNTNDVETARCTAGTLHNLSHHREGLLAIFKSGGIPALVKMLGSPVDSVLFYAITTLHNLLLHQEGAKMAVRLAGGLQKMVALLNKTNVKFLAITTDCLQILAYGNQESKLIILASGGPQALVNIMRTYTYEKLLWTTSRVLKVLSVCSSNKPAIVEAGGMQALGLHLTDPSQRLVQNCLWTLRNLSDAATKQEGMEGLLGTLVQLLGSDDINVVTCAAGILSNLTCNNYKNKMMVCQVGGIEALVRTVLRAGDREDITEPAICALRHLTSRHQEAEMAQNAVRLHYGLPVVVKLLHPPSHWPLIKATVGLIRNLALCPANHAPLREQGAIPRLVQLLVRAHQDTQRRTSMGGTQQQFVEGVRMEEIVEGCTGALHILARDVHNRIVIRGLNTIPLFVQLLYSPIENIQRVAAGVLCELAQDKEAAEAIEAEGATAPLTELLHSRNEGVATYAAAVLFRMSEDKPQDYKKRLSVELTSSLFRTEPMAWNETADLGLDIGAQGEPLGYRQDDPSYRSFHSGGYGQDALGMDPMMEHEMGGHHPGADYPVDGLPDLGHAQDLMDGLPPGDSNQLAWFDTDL

T2: full-length beta-Catenin (Uniprot ID P35222) (Homo sapiens (Human), UniProt P35222 1-781)
T2 construct: Used full-length in the FP and AlphaScreen assays; also called B-Catenin; bCat
T2 sequence: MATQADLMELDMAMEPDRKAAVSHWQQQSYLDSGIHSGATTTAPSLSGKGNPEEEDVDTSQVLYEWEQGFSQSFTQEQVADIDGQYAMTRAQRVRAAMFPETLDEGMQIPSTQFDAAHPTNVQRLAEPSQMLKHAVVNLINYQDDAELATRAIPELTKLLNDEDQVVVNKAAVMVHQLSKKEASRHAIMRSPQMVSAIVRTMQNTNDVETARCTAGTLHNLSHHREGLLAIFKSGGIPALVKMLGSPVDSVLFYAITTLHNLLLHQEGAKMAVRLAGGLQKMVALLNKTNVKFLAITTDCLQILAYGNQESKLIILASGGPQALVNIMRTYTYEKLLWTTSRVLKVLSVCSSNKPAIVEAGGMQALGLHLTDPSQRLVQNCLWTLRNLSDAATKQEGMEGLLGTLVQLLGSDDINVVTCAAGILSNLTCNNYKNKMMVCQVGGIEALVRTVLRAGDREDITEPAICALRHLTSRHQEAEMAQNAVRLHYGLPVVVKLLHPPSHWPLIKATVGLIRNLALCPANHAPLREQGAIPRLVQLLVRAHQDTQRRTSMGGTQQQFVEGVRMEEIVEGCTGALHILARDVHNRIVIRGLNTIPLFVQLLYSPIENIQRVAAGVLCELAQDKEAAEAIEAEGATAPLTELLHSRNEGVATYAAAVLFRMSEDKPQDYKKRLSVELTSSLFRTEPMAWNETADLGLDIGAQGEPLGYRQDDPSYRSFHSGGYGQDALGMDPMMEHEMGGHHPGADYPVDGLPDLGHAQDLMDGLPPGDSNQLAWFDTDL

B1: I-257 (peptide)
peptide: Ac-[αAllylPro]DA[B5(4)]D[Phe(3-F)]AAFV[S8]FWQ-NH2
modifications: staple 1-4, 4-11
notes: Stapled (stitched) peptide; also called Ac-PL3-Asp-Ala-B5-Asp-3FF-Ala-Ala-Phe-Val-S8-Phe-Trp-Gln-NH2
B2: I-259 (peptide)
peptide: Ac-[αAllylPro]DA[B5]D[Phe(3,4-F2)]AAFV[S8]FWQ-NH2
modifications: staple 1-4, 4-11
notes: Stapled (stitched) peptide; also called Ac-PL3-Asp-Ala-B5-Asp-34FF-Ala-Ala-Phe-Val-S8-Phe-Trp-Gln-NH2
B3: I-282 (peptide)
peptide: XDAXEDAAFVXFWQ
modifications: not fully specified; N-terminal Ac; PL3 at 1; B5 at 4; S8 at 11; C-terminal NH2; staples PL3(1)-B5(4) and B5(4)-S8(11) by olefin metathesis
notes: Stapled (stitched) peptide; also called Ac-PL3-Asp-Ala-B5-Glu-Asp-Ala-Ala-Phe-Val-S8-Phe-Trp-Gln-NH2
B4: I-283 (peptide)
peptide: Ac-[αAllylPro]DA[B5(4)]DDAAFV[S8]DWQ-NH2
modifications: staple 1-4, 4-11
notes: Stapled (stitched) peptide; also called Ac-PL3-Asp-Ala-B5-Asp-Asp-Ala-Ala-Phe-Val-S8-Asp-Trp-Gln-NH2
B5: I-284 (peptide)
peptide: Ac-[αAllylPro]DA[B5(4)]DDAAFV[S8]NWQ-NH2
modifications: staple 1-4, 4-11
notes: Stapled (stitched) peptide; also called Ac-PL3-Asp-Ala-B5-Asp-Asp-Ala-Ala-Phe-Val-S8-Asn-Trp-Gln-NH2
B6: I-280 (peptide)
peptide: XEAXDDAAFVXFWQ
modifications: not fully specified; N-terminal Ac; PL3 at 1; B5 at 4; S8 at 11; C-terminal NH2; staples PL3(1)-B5(4) and B5(4)-S8(11) by olefin metathesis
notes: Stapled (stitched) peptide; also called Ac-PL3-Glu-Ala-B5-Asp-Asp-Ala-Ala-Phe-Val-S8-Phe-Trp-Gln-NH2
B7: I-274 (peptide)
peptide: Ac-[αAllylPro]DA[B5(4)]DYAAFV[S8]FWQ-NH2
modifications: staple 1-4, 4-11
notes: Stapled (stitched) peptide; also called Ac-PL3-Asp-Ala-B5-Asp-Tyr-Ala-Ala-Phe-Val-S8-Phe-Trp-Gln-NH2
B8: I-279 (peptide)
peptide: XEAXDDAAFVXFWQ
modifications: not fully specified; N-terminal Ac; PL3 at 1; B5 at 4; S8 at 11; C-terminal NH2; staples PL3(1)-B5(4) and B5(4)-S8(11) by olefin metathesis
notes: as for B6
B9: I-281 (peptide)
peptide: XDAXEDAAFVXFWQ
modifications: not fully specified; N-terminal Ac; PL3 at 1; B5 at 4; S8 at 11; C-terminal NH2; staples PL3(1)-B5(4) and B5(4)-S8(11) by olefin metathesis
notes: as for B3
B10: I-258 (peptide)
peptide: Ac-[αAllylPro]DA[B5]D[Phe(4-F)]AAFV[S8]FWQ-NH2
modifications: staple 1-4, 4-11
notes: Stapled (stitched) peptide; also called Ac-PL3-Asp-Ala-B5-Asp-4FF-Ala-Ala-Phe-Val-S8-Phe-Trp-Gln-NH2
B11: I-256 (peptide)
peptide: Ac-[αAllylPro]DA[B5(4)]D[6F1NapA]AAFV[S8]FWQ-NH2
modifications: staple 1-4, 4-11
notes: Stapled (stitched) peptide; also called Ac-PL3-Asp-Ala-B5-Asp-6F1NapA-Ala-Ala-Phe-Val-S8-Phe-Trp-Gln-NH2
B12: I-273 (peptide)
peptide: Ac-[αAllylPro]DA[B5(17)]D[hTyr]AAFV[S8]FWQ-NH2
modifications: staple 1-4, 4-11
notes: Stapled (stitched) peptide; also called Ac-PL3-Asp-Ala-B5-Asp-hTyr-Ala-Ala-Phe-Val-S8-Phe-Trp-Gln-NH2

Starred links: 1 amine or outer side, 2 acyl side, 3 side chain; linkers in the order of their positions; H or OH if unused. Positions of bridges follow the written chain, without caps; N, C: chain ends. Non-standard residues stand in square brackets, D forms with d. Primed or numbered codes have the meaning given here. B5(17) = 2,2-bis(4-pentenyl)glycine = 2-amino-2-(pent-4-en-1-yl)hept-6-enoic acid, stitching residue, C=CCCCC(CCCC=C)(N[*:1])C(=O)[*:2]; B5(4) = 2,2-bis(4-pentenyl)glycine = 2-amino-2-(pent-4-en-1-yl)hept-6-enoic acid (stitching residue), C=CCCCC(CCCC=C)(N[*:1])C(=O)[*:2]; 6F1NapA = 2-amino-3-(6-fluoronaphthalen-1-yl)propanoic acid, O=C([C@H](Cc1cccc2cc(F)ccc12)N[*:1])[*:2]; B5(3) = 2,2-bis(4-pentenyl)glycine (stitching residue), C=CCCCC(CCCC=C)(N[*:1])C(=O)[*:2]; B5 = 2-amino-2-(pent-4-en-1-yl)hept-6-enoic acid, C=CCCCC(CCCC=C)(N[*:1])C(=O)[*:2]; Phe(3,4-F2) = N[C@@H](Cc1ccc(F)c(F)c1)C(=O)O; Phe(3-F) = N[C@@H](Cc1cccc(F)c1)C(=O)O; Phe(4-F) = N[C@@H](Cc1ccc(F)cc1)C(=O)O; hTyr = N[C@@H](CCc1ccc(O)cc1)C(=O)O; αAllylPro = C=CC[C@@]1(C(=O)O)CCCN1; S8 = C=CCCCCCC[C@](C)(N)C(=O)O

The target in the first experiment is T1, full-length beta-Catenin (Uniprot ID …). The experiment can be described thus: AlphaScreen competition; full-length beta-catenin with biotin-labelled TCF4 10-53 peptide as competitor. On the procedure: (§1) Equal volume of the titrated peptide was added to the plate and incubated for 15 minutes at 20° C. Then 4 uL of donor and 4 uL acceptor beads at 10 ug/mL were added to the plate, for a 16 uL reaction pool and protected from light for 60 minutes at 20° C. prior to read. Reads were performed on a CLARIOstar plate reader (BMG Labtech) in duplicate, and data were fitted to a 1:1 binding model with hill slope using an in-house script. All provided concentrations are final concentrations.
On the technique in general: Bead proximity is the source of the signal in Alpha formats.
Molecule B1 returned an EC50 of 3.81 µM. Regarding B2, the EC50 was determined as 4.18 µM. B3 had an EC50 of 3.53 µM. For B4, the EC50 turned out to be 9.54 µM. Molecule B5 registered an EC50 of 4.35 µM. On to B6, for which the EC50 was 3.05 µM. As for B7, a half-maximal response (EC50) required 2.35 µM.

B8 returned an EC50 of 4.96 µM.

Molecule B9 came in with an EC50 of 6.26 µM.

Take B10: the EC50 is 2.93 µM.

Take B11: a half-maximal effect (EC50) was put at 9.21 µM. Regarding B12, a half-maximal response (EC50) required 1.89 µM.

The next experiment has as its target T2, full-length beta-Catenin (Uniprot ID …). The experiment can be described thus: AlphaScreen (nickel chelate) competition; full-length beta-catenin + biotin-TCF4(10-53) probe as competitor; peptide titrated. As to the method:
as §1
For Ac-[αAllylPro]FA[B5(3)]DEAAFV[S8]FWQ-NH2 (staple 1-4, 4-11, Stapled peptide composition) [I-201], the EC50 amounted to 6.16 µM. Same read-out and setting: the figure for Ac-[αAllylPro]YA[B5(3)]DEAAFV[S8]FWQ-NH2 (staple 1-4, 4-11, Stapled peptide composition) [I-202] is 7.88 µM; for Ac-[αAllylPro][Phe(3-F)]A[B5(3)]DEAAFV[S8]FWQ-NH2 (staple 1-4, 4-11, Stapled peptide composition) [I-204] it is 7.28 µM; for Ac-[αAllylPro]DA[B5(4)]HEAAFV[S8]FWQ-NH2 (staple 1-4, 4-11, Stapled peptide composition) [I-206] it is 2.14 µM.
